Experimental findings from publication doi:10.1101/2024.03.19.585040 are described below.

Assay [1] addresses FakA H282A, H284A (Staphylococcus aureus) (Staphylococcus aureus). The experiment in a line: mass photometry.
For assay [2] the target is unchanged. The experiment in a line: mass photometry. This is another data set of the same source.
The target of assay [3] is Fatty acid kinase FakA (Staphylococcus aureus), wild type (Staphylococcus aureus). The experiment in a line: mass photometry.
The target is the same in assay [4]. The experiment in a line: SEC-SAXS. (In general: SEC sorts molecules by how far they enter the pores of the column.)
Assay [5] shares this target. Briefly: mass photometry. This is another data set of the same source.
Assay [6] concerns the target His-tagged FakB2 (Staphylococcus aureus) (Staphylococcus aureus). Briefly: BLI. On the technique in general: In BLI a coated tip is dipped into the sample, and binding shifts an interference pattern.

Where two headings read alike, the source gives them in different places.

Turning to “FakA H282A, H284A (Staphylococcus aureus) (enzyme)”, the percent of the protein in the dimer peak in assay [1] stood at 24%; in assay [2], 63%.
Take “Fatty acid kinase FakA (Staphylococcus aureus), wild type (enzyme)”: the percent of the protein in the dimer peak in assay [3] came to 57%; in assay [5], 77%. For the same substance, the stoichiometry N in assay [4] and in assay [5] was 2 throughout. This substance returned a Kd in assay [6] of 4.34 nM.

One may read the stoichiometry N as a count of units in the complex or per binding partner. What is called Kd is the constant that tells how readily two partners part at equilibrium.
